{"source": "patent US20180335435A1", "about": "(METAFORA BIOSYSTEMS, published 2018)", "binders": {"B1": {"name": "BLV.RBD-mFc ligand (receptor-binding domain of the bovine leukemia virus envelope glycoprotein tagged in frame with the constant fragment of mouse … (Fc fusion)", "chain": "WRCSLSLGNQQWMTTYNQEAKFFISIDQILEAHNQSPFCPRSPRYTLDFVNGYPKIYWPPPQGRRRFGARAMVTYDCEPRCPYVGADHFDCPHWDNASQADQGSFYVNHQTLFLHLKQCHGIFTLTWEIWGYDPLITFSLHKIPAPPQGSVDVPRDCGCKPCICTVPEVSSVFIFPPKPKDVLTITLTPKVTCVVVDISKDDPEVQFSWFVDDVEVHTAQTQPREEQFNSTFRSVSELPIMHQDWLNGKEFKCRVNSAAFPAPIEKTISKTKGRPKAPQVYTIPPPKEQMAKDKVSLTCMITDFFPEDITVEWQWNGQPAENYKNTQPIMDTDGSYFVYSKLNVQKSNWEAGNTFTCSVLHEGLHNHHTEKSLSHSPGK", "notes": "Used as a 1/10 dilution, detected with anti-mouse IgG1-Alexa Fluor 488; also called BLV.RBD ligand; BLV.RBD tagged with mouse Fc (mFc)"}}, "biological_target": "T1, human CAT1 (cationic amino acid transporter-1, SLC7A1) (human, UniProt P30825 1-629)", "T1 construct": "Endogenous on HEK293T cells or expressed from a human CAT1 vector in QT6, HEK293T or CHO cells; also called CAT1/SLC7A1; Hu-CAT1", "T1 sequence (P30825 whole entry)": "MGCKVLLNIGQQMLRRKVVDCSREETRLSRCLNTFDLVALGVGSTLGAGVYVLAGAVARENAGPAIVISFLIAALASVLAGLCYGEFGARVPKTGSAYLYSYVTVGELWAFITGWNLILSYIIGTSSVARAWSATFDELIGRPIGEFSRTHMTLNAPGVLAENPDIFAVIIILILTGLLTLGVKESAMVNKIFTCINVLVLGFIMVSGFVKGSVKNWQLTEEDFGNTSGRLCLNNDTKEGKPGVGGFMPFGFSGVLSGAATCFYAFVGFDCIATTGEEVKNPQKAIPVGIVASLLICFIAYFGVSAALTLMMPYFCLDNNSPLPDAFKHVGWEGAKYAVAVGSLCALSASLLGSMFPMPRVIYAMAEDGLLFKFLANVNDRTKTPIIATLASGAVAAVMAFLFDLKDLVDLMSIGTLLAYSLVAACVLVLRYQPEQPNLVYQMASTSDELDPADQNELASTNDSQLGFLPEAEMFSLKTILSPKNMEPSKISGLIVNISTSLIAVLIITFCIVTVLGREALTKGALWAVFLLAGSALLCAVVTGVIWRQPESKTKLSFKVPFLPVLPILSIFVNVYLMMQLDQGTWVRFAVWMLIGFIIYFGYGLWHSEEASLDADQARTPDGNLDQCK", "test": "flow cytometry on HEK293T cells transfected with siRNA to CAT1 (n=3)", "data": [{"binder": "B1", "values": [{"measurement": "fold decrease of binding after siRNA against CAT1 mRNA", "value": 3.5, "unit": "fold"}]}]}
